Experimental data from patent US20250388688A1 (ETHYREAL BIO, published 2025).
Positions count from the first letter of the chain named. Each block holds one molecule with its values, some of them ahead of it.

Experiments:
[1] = molecular target: T1, soluble TSHR protein (ELISA coat) (human, UniProt P16473 22-260, limits assumed); test: ELISA, plate coated with soluble TSHR, antibody at 33.3 nM, anti-human IgG Fc-HRP (blank 0.051)
[2] = molecular target: T1, soluble TSHR protein (ELISA coat); test: ELISA, plate coated with soluble TSHR, antibody at 100 nM, anti-human IgG Fc-HRP (blank 0.052)
[3] = molecular target: T1, soluble TSHR protein (ELISA coat); test: ELISA, plate coated with soluble TSHR, antibody at 300 nM, anti-human IgG Fc-HRP (blank 0.055)
[4] = molecular target: T1, soluble TSHR protein (ELISA coat); test: ELISA, plate coated with soluble TSHR, antibody at 300 nM, anti-human IgG Fc-HRP;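 further: TSHR coated at 2 µg/ml, bound antibody revealed by goat anti-human IgG Fc HRP, color developed with TMB and stopped with H2SO4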
Procedure: (§1) Select TSHR antibody variants were tested for their ability to bind TSHR in an ELISA. Briefly, soluble TSHR protein was coated onto a plate at 2 μg/ml in phosphate buffered saline (PBS). The plate was washed with PBS and blocked with 4% skim milk in PBS.
(§2) Following wash steps with 1×PBS-Tween 0.05%, bound human IgG was detected with peroxidase conjugated goat anti-human IgG (Fc specific)-HRP at 1:5000 dilution and the ELISA was developed with TMB reagent followed by H2SO4.

[5] = molecular target: T1, soluble TSHR protein (ELISA coat); test: ELISA, plate coated with soluble TSHR, antibody at 33.3 nM, anti-human IgG Fc-HRP;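 further: binding of antibody variants to plate-bound soluble TSHR (coated at 2 µg/ml), with bound human IgG detected by HRP conjugate and colour developed using TMB substrate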
Procedure: as §1, §2

[6] = molecular target: T1, soluble TSHR protein (ELISA coat); test: ELISA, plate coated with soluble TSHR, antibody at 100 nM, anti-human IgG Fc-HRP;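 further: binding of antibody variants to soluble TSHR coated at 2 µg/ml, with colour developed using TMB substrate and stopped with H2SO4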
Procedure: as §1, §2

[7] = molecular target: T2, Soluble TSHR (22-260) protein (human, UniProt P16473 22-260); test: SPR (Biacore T200, 25 C), antibody captured on anti-human Fc, soluble TSHR (22-260) as analyte, 1:1 fit;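 further: antibodies captured at 0.1 ug/mL on a CM5 sensor chip bearing anti-human Fc, with HBS-EP+ running buffer at pH 7.4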
T2 construct: range 22-260
Procedure: Measurements were taken on a Biacore T200 at 25 C using a CM5 chip coated with anti-human Fc. Test antibodies were captured at 0.1 ug/mL in HBS-EP+ (10 mM HEPES pH7.4, 150 mM NaCl, 3 mM EDTA, 0.05% Tween 20) assay buffer. […] A 1:1 binding kinetics fit was used to calculate kinetic parameters.

B1: parental TSHR-binding antibody (antibody, V domains shown)
VH: EVQLVQSGAEVKKPGQSLKISCKASGYSLTDNWIGWVRQKPGKGLEWMGIIYPGDSDTRYSPSFQGQVTISADKSINTAYLQWSSLKASDTAIYYCVGLDWNYNPLRYWGPGTLVTVSS
VL: QSVLTQPPSVSAAPGQKVTISCSGSSSDIGSNYVSWYQQFPGTAPKLLIYDNNKRPSAIPDRFSGSKSGTSATLGITGLQTGDEADYYCGTWDSRLGIAVFGGGTQLTVL
notes: it has a human Fc (captured on anti-human Fc, detected with anti-human IgG Fc); also called parental antibody; parental anti-TSHR antibody
ELISA (OD 450) at 300 nM [4]: 0.461 OD 450
ELISA (OD 450) at 33.3 nM [5]: 0.406 OD 450
ELISA (OD 450) at 100 nM [6]: 0.43 OD 450

B3: TSHB-12 (antibody, V domains shown)
VH: EVQLVQSGAEVKKPGASVKVSCKASGYSLTDNWIGWVRQAPGQGLEWMGIIYPGDSDTRYAQKFQGRVTMTADKSTSTVYMELSSLRSEDTAVYYCVGLDWNYNPLRYWGQGTLVTVSS
VL: B1 VL
ELISA (OD 450) at 300 nM [4]: 0.52 OD 450
ELISA (OD 450) at 33.3 nM [5]: 0.402 OD 450
ELISA (OD 450) at 100 nM [6]: 0.475 OD 450

B4: TSHB-23 (antibody, V domains shown)
VH: B1 VH with Q16E, N77S, P111Q
VL: B1 VL with F40L, A58G
ELISA (OD 450) at 300 nM [4]: 0.538 OD 450
ELISA (OD 450) at 33.3 nM [5]: 0.512 OD 450
Kd [7]: 2.45 nM
koff [7]: 0.000344 s⁻¹
kon [7]: 141000 M⁻¹ s⁻¹
ELISA (OD 450) at 100 nM [6]: 0.466 OD 450

B10: TSHB-15 (antibody, V domains shown)
VH: B1 VH
VL: B1 VL with F40L, A58G, L96F
ELISA (OD 450) at 300 nM [4]: 0.569 OD 450
ELISA (OD 450) at 33.3 nM [5]: 0.443 OD 450
Kd [7]: 3.08 nM
koff [7]: 0.000372 s⁻¹
kon [7]: 121000 M⁻¹ s⁻¹
ELISA (OD 450) at 100 nM [6]: 0.517 OD 450

B12: TSHB-9 (antibody, V domains shown)
VH: B1 VH with Q16E, I34T, N77S, P111Q
VL: B1 VL
ELISA (OD 450) at 300 nM [4]: 0.478 OD 450
ELISA (OD 450) at 33.3 nM [5]: 0.355 OD 450
Kd [7]: 6.53 nM
koff [7]: 0.000676 s⁻¹
kon [7]: 104000 M⁻¹ s⁻¹
ELISA (OD 450) at 100 nM [6]: 0.452 OD 450

The next lines start with the values.

ELISA (OD 450) at 33.3 nM [1]: 0.063 OD 450
ELISA (OD 450) at 100 nM [2]: 0.057 OD 450
ELISA (OD 450) at 300 nM [3]: 0.055 OD 450
Molecule: human IgG1 isotype control antibody

ELISA (OD 450) at 300 nM [4]: 0.54 OD 450
ELISA (OD 450) at 33.3 nM [5]: 0.425 OD 450
Kd [7]: 2.7 nM
koff [7]: 0.000348 s⁻¹
kon [7]: 129000 M⁻¹ s⁻¹
ELISA (OD 450) at 100 nM [6]: 0.49 OD 450
B2: TSHB-24 (antibody, V domains shown)
VH: B1 VH with Q16E, N77S, P111Q
VL: B1 VL with A12G, K17R, F40L, A58G, I59V, T73S, G75A, T81A, G82E, Q106K

ELISA (OD 450) at 300 nM [4]: 0.367 OD 450
ELISA (OD 450) at 33.3 nM [5]: 0.38 OD 450
ELISA (OD 450) at 100 nM [6]: 0.409 OD 450
B5: TSHB-25 (antibody, V domains shown)
VH: B3 VH
VL: B1 VL with A12G, K17R, F40L, A58G, I59V, T73S, G75A, T81A, G82E, Q106K

ELISA (OD 450) at 300 nM [4]: 0.641 OD 450
ELISA (OD 450) at 33.3 nM [5]: 0.442 OD 450
Kd [7]: 1.7 nM
koff [7]: 0.000273 s⁻¹
kon [7]: 161000 M⁻¹ s⁻¹
ELISA (OD 450) at 100 nM [6]: 0.506 OD 450
B6: TSHB-1 (antibody, V domains shown)
VH: B1 VH with Q16E, N77S, P111Q
VL: B1 VL

ELISA (OD 450) at 300 nM [4]: 0.572 OD 450
ELISA (OD 450) at 33.3 nM [5]: 0.477 OD 450
Kd [7]: 2.52 nM
koff [7]: 0.000352 s⁻¹
kon [7]: 140000 M⁻¹ s⁻¹
ELISA (OD 450) at 100 nM [6]: 0.522 OD 450
B7: TSHB-14 (antibody, V domains shown)
VH: B1 VH
VL: B1 VL with F40L, A58G, L96W

ELISA (OD 450) at 300 nM [4]: 0.552 OD 450
ELISA (OD 450) at 33.3 nM [5]: 0.395 OD 450
Kd [7]: 3.1 nM
koff [7]: 0.000357 s⁻¹
kon [7]: 115000 M⁻¹ s⁻¹
ELISA (OD 450) at 100 nM [6]: 0.473 OD 450
B8: TSHB-21 (antibody, V domains shown)
VH: B1 VH
VL: B1 VL with F40L, A58G, G90A

ELISA (OD 450) at 300 nM [4]: 0.586 OD 450
ELISA (OD 450) at 33.3 nM [5]: 0.471 OD 450
Kd [7]: 2.25 nM
koff [7]: 0.000344 s⁻¹
kon [7]: 153000 M⁻¹ s⁻¹
ELISA (OD 450) at 100 nM [6]: 0.551 OD 450
B9: TSHB-8 (antibody, V domains shown)
VH: B1 VH with Q16E, N77S, I93M, P111Q
VL: B1 VL

ELISA (OD 450) at 300 nM [4]: 0.578 OD 450
ELISA (OD 450) at 33.3 nM [5]: 0.414 OD 450
Kd [7]: 2.82 nM
koff [7]: 0.00044 s⁻¹
kon [7]: 156000 M⁻¹ s⁻¹
ELISA (OD 450) at 100 nM [6]: 0.498 OD 450
B11: TSHB-5 (antibody, V domains shown)
VH: B1 VH with Q16E, S28Q, N77S, P111Q
VL: B1 VL
